Molecular target: SARS-CoV-2 wild-type spike receptor-binding domain (WT-RBD) (SARS-CoV-2, UniProt P0DTC2)
Assay: SPR
Settings: both partners purified

B1: 1C4 (murine monoclonal antibody, IgG format) (antibody, V domains shown)
VH: QIQLVQSGPELKKPGETVKISCKASGYTFTDYGLNWVKQAPGKGLKWMGWINTYSGEPTYNDEFRGRFAFSLETSTITAYLKINNLKNEDTATYFCARGGNWDWYFDVWGAGTTVTVSS
VL: DIVLTQSPATLSVTPGDNVSLSCRASQIISNNLHWYQQKSHESPRLLIKYASQSISGIPSRFSGSGSGTDFTLSINSVETEDFGMYFCQQSNTWPLTCGSGTKLELN
- Kd: 0.488 nM

Reference: PMC12697983 (PLOS Pathogens, 2025)
